Test results reported in the supplement of paper PMC10724198.
± gives the standard deviation of the averaged measurements.

Experiments:
Saccharomyces cerevisiae [1] = experiment: protein stability index of tFT-peptide fusion (C-terminal peptide) (PSI (0-1 scale)); higher = more stable (slower turnover)
Experimental: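 MPS profiling in S. cerevisiae of the tFT-X12 degron library: putative degron peptides plus stable controls, 12 aa, fused to the C-terminus of a sfGFP-mCherry timer. Cells are FACS-sorted into 8 mCherry/sfGFP bins and deep-sequenced. PSI runs from 0 (unstable) to 1 (stable). Backgrounds are wild type, das1Δ and doa10Δ at 30 °C, and wild type, das1Δ, cdc34-1 and cdc53-1 at 37 °C; 2-3 technical replicates each.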

Saccharomyces cerevisiae [2] = experiment: as above; conditions: genetic background: wild type; temperature: 30 C
[3] = genetic background: cdc34-1, temperature: 37 C
[4] = genetic background: cdc53-1, temperature: 37 C
[5] = genetic background: das1 deletion, temperature: 30 C
[6] = genetic background: das1 deletion, temperature: 37 C
[7] = genetic background: doa10 deletion, temperature: 30 C
[8] = genetic background: wild type, temperature: 30 C
[9] = genetic background: wild type, temperature: 37 C
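Note: PSI is a weighted mean of sequencing reads over stability bins, variants kept only with over 10 reads, mCherry proximal and sfGFP distal, peptide attached via GGGS linker.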

Sequence: GLDLLTKFSKEC
- protein stability index (Saccharomyces cerevisiae [1]; [3]): 0.678 ± 0.049
- protein stability index (Saccharomyces cerevisiae [1]; [4]): 0.734 ± 0.036
- protein stability index (Saccharomyces cerevisiae [1]; [5]): 0.617 ± 0.02
- protein stability index (Saccharomyces cerevisiae [1]; [6]): 0.741 ± 0.015
- protein stability index (Saccharomyces cerevisiae [1]; [7]): 0.291 ± 0.027
- protein stability index (Saccharomyces cerevisiae [1]; [8]): 0.33 ± 0.015
- protein stability index (Saccharomyces cerevisiae [1]; [9]): 0.585 ± 0.011
- protein stability index (Saccharomyces cerevisiae [2]): 0.465 ± 0.034

Sequence: LSLLILFVLLSF
- protein stability index (Saccharomyces cerevisiae [1]; [3]): 0.444 ± 0.014
- protein stability index (Saccharomyces cerevisiae [1]; [4]): 0.476 ± 0.016
- protein stability index (Saccharomyces cerevisiae [1]; [5]): 0.355 ± 0.042
- protein stability index (Saccharomyces cerevisiae [1]; [6]): 0.449 ± 0.023
- protein stability index (Saccharomyces cerevisiae [1]; [7]): 0.3914 ± 0.00083
- protein stability index (Saccharomyces cerevisiae [1]; [8]): 0.385 ± 0.024
- protein stability index (Saccharomyces cerevisiae [1]; [9]): 0.463 ± 0.039

Sequence: VQTVRLVFQVLA
- protein stability index (Saccharomyces cerevisiae [1]; [3]): 0.307 ± 0.0063
- protein stability index (Saccharomyces cerevisiae [1]; [4]): 0.373 ± 0.049
- protein stability index (Saccharomyces cerevisiae [1]; [5]): 0.25 ± 0.033
- protein stability index (Saccharomyces cerevisiae [1]; [6]): 0.4 ± 0.0099
- protein stability index (Saccharomyces cerevisiae [1]; [7]): 0.106 ± 0.0074
- protein stability index (Saccharomyces cerevisiae [1]; [8]): 0.125 ± 0.031
- protein stability index (Saccharomyces cerevisiae [1]; [9]): 0.207 ± 0.018

Sequence: EKKKKKRKNKIK
- protein stability index (Saccharomyces cerevisiae [1]; [3]): 0.691 ± 0.0098
- protein stability index (Saccharomyces cerevisiae [1]; [4]): 0.727 ± 0.037
- protein stability index (Saccharomyces cerevisiae [1]; [5]): 0.655 ± 0.024
- protein stability index (Saccharomyces cerevisiae [1]; [6]): 0.7221 ± 0.0038
- protein stability index (Saccharomyces cerevisiae [1]; [7]): 0.649 ± 0.016
- protein stability index (Saccharomyces cerevisiae [1]; [8]): 0.652 ± 0.025
- protein stability index (Saccharomyces cerevisiae [1]; [9]): 0.661 ± 0.028

Sequence: RGGVRGVRSGRG
- protein stability index (Saccharomyces cerevisiae [1]; [3]): 0.588 ± 0.016
- protein stability index (Saccharomyces cerevisiae [1]; [4]): 0.716 ± 0.047
- protein stability index (Saccharomyces cerevisiae [1]; [5]): 0.478 ± 0.014
- protein stability index (Saccharomyces cerevisiae [1]; [6]): 0.565 ± 0.026
- protein stability index (Saccharomyces cerevisiae [1]; [7]): 0.4741 ± 0.0046
- protein stability index (Saccharomyces cerevisiae [1]; [8]): 0.485 ± 0.02
- protein stability index (Saccharomyces cerevisiae [1]; [9]): 0.631 ± 0.045

Sequence: FHSALIAIAAYV
- protein stability index (Saccharomyces cerevisiae [1]; [3]): 0.135 ± 0.012
- protein stability index (Saccharomyces cerevisiae [1]; [4]): 0.128 ± 0.032
- protein stability index (Saccharomyces cerevisiae [1]; [5]): 0.201 ± 0.029
- protein stability index (Saccharomyces cerevisiae [1]; [6]): 0.2396 ± 0.00086
- protein stability index (Saccharomyces cerevisiae [1]; [7]): 0.162 ± 0.024
- protein stability index (Saccharomyces cerevisiae [1]; [8]): 0.202 ± 0.016
- protein stability index (Saccharomyces cerevisiae [1]; [9]): 0.217 ± 0.0052

Sequence: APLPPPPASVPP
- protein stability index (Saccharomyces cerevisiae [1]; [3]): 0.656 ± 0.076
- protein stability index (Saccharomyces cerevisiae [1]; [4]): 0.7014 ± 0.0041
- protein stability index (Saccharomyces cerevisiae [1]; [5]): 0.672 ± 0.015
- protein stability index (Saccharomyces cerevisiae [1]; [6]): 0.711 ± 0.014
- protein stability index (Saccharomyces cerevisiae [1]; [7]): 0.65 ± 0.014
- protein stability index (Saccharomyces cerevisiae [1]; [8]): 0.649 ± 0.03
- protein stability index (Saccharomyces cerevisiae [1]; [9]): 0.691 ± 0.0089

Sequence: VLRFVYDLVSAL
- protein stability index (Saccharomyces cerevisiae [1]; [3]): 0.559 ± 0.036
- protein stability index (Saccharomyces cerevisiae [1]; [4]): 0.599 ± 0.011
- protein stability index (Saccharomyces cerevisiae [1]; [5]): 0.531 ± 0.029
- protein stability index (Saccharomyces cerevisiae [1]; [6]): 0.643 ± 0.036
- protein stability index (Saccharomyces cerevisiae [1]; [7]): 0.334 ± 0.0067
- protein stability index (Saccharomyces cerevisiae [1]; [8]): 0.342 ± 0.021
- protein stability index (Saccharomyces cerevisiae [1]; [9]): 0.435 ± 0.015
